# US20230143294A1 (SYNBIO TECHNOLOGIES, published 2023)
# Numbering of substitutions follows the chain as printed.
# B1: Antibody II-HX-15 (antibody, human IgG4 S228P, kappa, V domains shown)
# VH: VQLVQSGAEVKKPGASVKVSCKASGYTFTSYVMHWVRQAPGQGLEWMGYINPYNDGTKYNEKFKGRVTITSDKSASTAYMELSSLRSEDTAVYYCAWSGAIFEYWGQGTLVTVSS
# VL: TQSPSFLSASVGDRVTITCSASSSVSYMHWFQQKPGKSPKLWIYSTSNLASGVPARFSGSGSGTSYSLTISSLQPEDFATYYCQQRSSYPYTFGQGTKLEIKR
# notes: also called antibody II sample; candidate antibody II sample
# B2: Antibody II-HX-11 (antibody, human IgG4 S228P, kappa, V domains shown)
# VH: VQLVQSGAEVKKPGASVKVSCKASGYYTSSPVMHWVRQAPGQGLEWMGYINYFYDGTKYNEKFKGRVTITSDKSASTAYMELSSLRSEDTAVYYCAKSAIAFEYWGQGTLVTVSS
# VL: B1 VL with S24T, S26Y, Q85Y, P90W
# B3: Antibody II-HX-17 (antibody, human IgG4 S228P, kappa, V domains shown)
# VH: VQLVQSGAEVKKPGASVKVSCKASGYFFSSFVMHWVRQAPGQGLEWMGYINHFQDATKYNEKFKGRVTITSDKSASTAYMELSSLRSEDTAVYYCARSVGITDYWGQGTLVTVSS
# VL: B1 VL with S24T, S26Y, T46Y, P90H
# B4: Antibody II-HX-14 (antibody, human IgG4 S228P, kappa, V domains shown)
# VH: B3 VH with H52Y, F53Y, Q54N, V99A, G100A, I101L, T102S, D103E
# VL: B1 VL with S24T, V25I, S26T, S45Y, Q85N, S87T, Y89F, P90H
# B5: Antibody II-HX-13 (antibody, human IgG4 S228P, kappa, V domains shown)
# VH: B1 VH with T27S, W97R, G99I, A100G, F102T, E103D
# VL: B1 VL with V25I, Y89F
# B6: Antibody II-HX-19 (antibody, human IgG4 S228P, kappa, V domains shown)
# VH: B1 VH with T27Y, F28T, P52H, Y53F, N54Q, G56A
# VL: B1 VL with V25G, S26Y, S45T
# B7: Antibody II-HX-18 (antibody, human IgG4 S228P, kappa, V domains shown)
# VH: B1 VH with T27Y, F28T, T29S, Y31P, W97K, A100G, F102S, E103D
# VL: B1 VL with V25A, T46Y, Q85Y, S87T
# B8: Antibody II-HX-10 (antibody, human IgG4 S228P, kappa, V domains shown)
# VH: B1 VH with T27S, F28T, T29S, Y31F, P52Y, G56A
# VL: B1 VL with T46Y, Q85N, S87T, Y89F, P90H
# B9: Antibody II-HX-16 (antibody, human IgG4 S228P, kappa, V domains shown)
# VH: B1 VH with T27F, F28Y, Y53F, N54Q, G56I, G99A, I101L, F102S
# VL: B1 VL with Q85N, S87Y
# B10: Antibody I-HX-2 (antibody, human IgG4 S228P, kappa, V domains shown)
# VH: VQLVQSGAEVKKPGASVKVSCKASGYSFTSYWMHWVRQAPGQGLEWMGAIYPGNSDTSYNQKFKGRVTITAVTSASTAYMELSSLRSEDTAVYYCTRWGDGYYHAMDHWGQGTLVTVSS
# VL: DIQMTQSPSSLSASVGDRVTITCRASQDIGNTLNWLQQKPGKAIKRLIYATSSLDSGVPKRFSGSRSGSDYSLTISSLQPEDFATYYCLQYASSPFTFGQGTKLEIKR
# notes: also called antibody I sample; candidate antibody I sample
# B11: Antibody I-HX-5 (antibody, human IgG4 S228P, kappa, V domains shown)
# VH: VQLVQSGAEVKKPGASVKVSCKASGYTFTSYWMHWVRQAPGQGLEWMGAIYWAHSETSYNQKFKGRVTITAVTSASTAYMELSSLRSEDTAVYYCTHWLEVYFHGMDHWGQGTLVTVSS
# VL: B10 VL with D28N, I29G, G30I, A50V, Q90Y, S94Y, P95F
# B12: Antibody I-HX-4 (antibody, human IgG4 S228P, kappa, V domains shown)
# VH: B11 VH with F28Y, T29N, S30F, W52H, A53V, H54Q, E56D
# VL: B10 VL with D28E, N31Q, A50V, Q90Y, Y91F
# B13: Antibody I-HX-8 (antibody, human IgG4 S228P, kappa, V domains shown)
# VH: B11 VH with T27S, S30T, W52P, A53V, L99I, V101A, Y102F, G105L, D107Q
# VL: B10 VL with D28N, N31Q, A50S
# B14: Antibody I-HX-3 (antibody, human IgG4 S228P, kappa, V domains shown)
# VH: B11 VH with F28Y, T29Y, S30F, W52H, A53G, H54N, L99A, E100D, V101A, D107N
# VL: B10 VL with D28N, G30A, A50V, T51S, Q90Y, S94Y, P95F
# B15: Antibody I-HX-1 (antibody, human IgG4 S228P, kappa, V domains shown)
# VH: B10 VH with F28Y, T29Y, S30F, P52H, G53I, D100E, D107N
# VL: B10 VL with I29L, T51S, Q90Y, S94T
# notes: expressed in HEK 293 or CHO cells
# B16: Antibody I-HX-6 (antibody, human IgG4 S228P, kappa, V domains shown)
# VH: B10 VH with T29S, N54Q, D56E, R97H, G99I, Y103F, A105V
# VL: B10 VL with D28E, N31Q, A50G, Q90N, A92I
# B17: Antibody I-HX-7 (antibody, human IgG4 S228P, kappa, V domains shown)
# VH: B10 VH with S30T, P52W, G53A, N54H, D56E
# VL: B10 VL with D28E, N31Q, Q90Y, S94T
# Target: T1, human PD-L1 antigen (Beijing Sino Biological Inc, Catalog No. #10084-H08H-100) (human, UniProt Q9NZQ7 19-239)
# T1 construct: Bought antigen; also called the antigen
# Assay: BLI (ForteBIO Octet), antibody captured on sensor, human PD-L1 in solution
# Method: (§1) To determine the binding affinity of a candidate antibody to an antigen, Bio-layer Interferometry (ForteBIO Octet system) was used for determining the affinity of the antibody to the antigen. The association constant, dissociation constant and affinity constant of the antibody with the antigen were determined through qualitative analyses.
# (§2) The human PD-L1 antigen was added, and binding kinetic curves were determined by the ForteBIO Octet platform.
# (§3) Kinetic constants were obtained from the preceding determined kinetic curves.
# T1 sequence (Q9NZQ7 19-239 limits assumed): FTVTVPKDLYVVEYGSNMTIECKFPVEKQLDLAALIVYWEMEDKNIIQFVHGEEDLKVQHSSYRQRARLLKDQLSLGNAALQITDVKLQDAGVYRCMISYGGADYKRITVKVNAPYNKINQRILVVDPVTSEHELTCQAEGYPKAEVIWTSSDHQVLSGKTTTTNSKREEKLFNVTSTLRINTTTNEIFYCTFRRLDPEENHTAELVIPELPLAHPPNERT
Binder,Kd,koff,kon
B1,0.149 nM,5.6e-07 s⁻¹,3760 M⁻¹ s⁻¹
B2,2.8 nM,7.71e-06 s⁻¹,2750 M⁻¹ s⁻¹
B3,1.82 nM,4.92e-06 s⁻¹,2710 M⁻¹ s⁻¹
B4,3.19 nM,9.55e-06 s⁻¹,2990 M⁻¹ s⁻¹
B5,0.707 nM,2.13e-06 s⁻¹,3010 M⁻¹ s⁻¹
B6,1.23 nM,3.75e-06 s⁻¹,3040 M⁻¹ s⁻¹
B7,0.624 nM,1.92e-06 s⁻¹,3080 M⁻¹ s⁻¹
B8,3.67 nM,9.2e-06 s⁻¹,2510 M⁻¹ s⁻¹
B9,3.71 nM,9.19e-06 s⁻¹,2500 M⁻¹ s⁻¹

# Target: T1, human PD-L1 antigen (Beijing Sino …)
# Assay: as above
# Remark: another data set of the same source
# Method: as §1, §2, §3
Binder,Kd,koff,kon
B10,0.0291 nM,2.7e-07 s⁻¹,9280 M⁻¹ s⁻¹
B11,0.459 nM,3.27e-06 s⁻¹,7120 M⁻¹ s⁻¹
B12,0.11 nM,8.95e-07 s⁻¹,8100 M⁻¹ s⁻¹
B13,0.259 nM,1.81e-06 s⁻¹,6990 M⁻¹ s⁻¹
B14,0.271 nM,1.92e-06 s⁻¹,7080 M⁻¹ s⁻¹
B15,0.046 nM,4.1e-07 s⁻¹,8920 M⁻¹ s⁻¹
B16,0.0481 nM,4.29e-07 s⁻¹,8930 M⁻¹ s⁻¹
B17,0.047 nM,4.27e-07 s⁻¹,9090 M⁻¹ s⁻¹
